# Experimental data from the Human Domainome abundance scans (Beltran et al. 2025).
# ± gives the uncertainty stated by the source.
# B1: Zinc finger homeobox protein 3, residues 2643 to 2698; numbered along this chain, Q15911 (parent)
# chain: RLRTTITPEQLEILYQKYLLDSNPTRKMLDHIAHEVGLKKRVVQVWFQNTRARERK
# B2: Membrane-associated guanylate kinase, WW and PDZ domain-containing protein 3, residues 287 to 329; numbered along this chain, Q5TCQ9 (parent)
# chain: MRDETLEPLPKNWEMAYTDTGMIYFIDHNTKTTTWLDPRLCKK
# Variants of: B1
# Test: abundance fitness (aPCA) (normalised: wild type 0, dead -1); higher = more abundant; growth selection in yeast, the domain comes from the species named
# Details: Homo sapiens
row,Variant,abundance fitness
1,RLRTTITPEQLERLYQKYLLDSNPTRKMLDHIAHEVGLKKRVVQVWFQNTRARERK [I13R],-0.123 ± 0.082
2,RLRTTITPEQLEILYQKYLLDSNPTRKMLDHIAHEVGLKKRVVQVWNQNTRARERK [F47N],-0.835 ± 0.27
3,RLRTTITPEQLEILYQKYLLDSNPTRKMLDHIAHEVGLKKRVVQVWEQNTRARERK [F47E],-0.736 ± 0.15
4,RLRTTITPEQLEILYQKYLLDSNPTRPMLDHIAHEVGLKKRVVQVWFQNTRARERK [K27P],0.16 ± 0.1
5,RLRTTITPEQLEILYQKYLLDSKPTRKMLDHIAHEVGLKKRVVQVWFQNTRARERK [N23K],-0.335 ± 0.17
6,RLRTTITPEQLEILYQKYLLDSRPTRKMLDHIAHEVGLKKRVVQVWFQNTRARERK [N23R],-0.118 ± 0.087
7,RLRTTITPEQLEILYQKMLLDSNPTRKMLDHIAHEVGLKKRVVQVWFQNTRARERK [Y18M],-0.373 ± 0.14
8,RLRTTITPEQLEILYQKELLDSNPTRKMLDHIAHEVGLKKRVVQVWFQNTRARERK [Y18E],-0.948 ± 0.19
9,RLRTTITPEQLEILYQKYLLDSNPTRKMLDHIAHEVGLKKRVVQVWFQVTRARERK [N49V],-0.229 ± 0.093
10,RLRTTITPEQLEILYQKYLLDSNPTRKMLDHIAHEVGLKKRVVQVWFQNTKARERK [R51K],0.112 ± 0.11
11,RLRTTITPEQLEILYQKYLLDSNPTRKMLDHIAHEEGLKKRVVQVWFQNTRARERK [V36E],-1.11 ± 0.26
12,RLPTTITPEQLEILYQKYLLDSNPTRKMLDHIAHEVGLKKRVVQVWFQNTRARERK [R3P],-0.081 ± 0.15
13,RLRTTITPEQLEILYQKYLLDSNPTRKMLDHIAHEVGLKKAVVQVWFQNTRARERK [R41A],0.159 ± 0.11
14,RLRTTITPEQLEILYQKYLLDSNPTRKMLDHIAHEVGLKKVVVQVWFQNTRARERK [R41V],0.041 ± 0.093
15,RLRTTITPEQLEILYQKYFLDSNPTRKMLDHIAHEVGLKKRVVQVWFQNTRARERK [L19F],-0.36 ± 0.15
16,RLRTTITPEQLEILYQKYLLDSNPTRKMLDHIAFEVGLKKRVVQVWFQNTRARERK [H34F],-0.114 ± 0.15
17,RLRTTITPEQLEILYQKYLLDSNPTRKMLDHIACEVGLKKRVVQVWFQNTRARERK [H34C],-0.075 ± 0.099

# Variants of: B2
# Test: as above
# Details: Homo sapiens
row,Variant,abundance fitness
1,C41P,0.043 ± 0.041
2,C41R,-0.021 ± 0.029
3,C41L,-0.013 ± 0.033
4,C41I,0.059 ± 0.1
5,C41V,0.02 ± 0.03
6,C41S,0.034 ± 0.041
7,C41D,-0.006 ± 0.039
8,C41W,0.007 ± 0.033
9,C41G,-0.004 ± 0.029
10,C41F,-0.044 ± 0.095
11,C41Y,-0.005 ± 0.055
12,C41A,0.058 ± 0.028
13,C41T,0.01 ± 0.046
14,C41K,-0.015 ± 0.04
15,C41E,0.038 ± 0.044
16,C41Q,0.04 ± 0.037
17,C41H,0.051 ± 0.081
18,P38A,-0.899 ± 0.046
19,P38C,-1.12 ± 0.12
20,P38F,-0.95 ± 0.13
21,P38R,-0.954 ± 0.041
22,P38N,-1.04 ± 0.1
23,P38M,-0.83 ± 0.066
24,P38W,-0.963 ± 0.048
25,P38Y,-1.17 ± 0.39
26,P38E,-1.02 ± 0.062
27,P38H,-0.806 ± 0.068
28,P38G,-0.902 ± 0.033
